Assay results as given in doi:10.1101/2021.12.01.470767 (bioRxiv, 2021).
Numbering of substitutions follows the chain as printed.

B1: COVA1-07 (antibody, V domains shown)
VH: QVQLVESGAEVKKPGSSVKVSCKASGGTLSSYAITWVRQAPGQGLEWVGGIIPIFGTANYAQKFQGRVTITADESTSTAYMELSSLRSEDTAVYYCARVGAYDSSGYSNDYWGQGTLVTVSS
VL: DIQLTQSPATLSLSPGERATLSCRASQSVSSYLAWYQQKPGQAPRLLIYDASNRATGIPARFSGSGSGTDFTLTISSLEPEDFAVYYCQQRSNWPPRVTFGGGTKVEIK
B2: COVA2-14 (antibody, V domains shown)
VH: B1 VH with E6Q, L29F, T35I, V48M, A72T, G100R, A101Y, S108Y, N109E
VL: B1 VL with D1E, Q3V, K39E, R97M, V98Y, G102Q
B3: COVA2-18 (antibody, V domains shown)
VH: EVQLVQSGAEVKKPGSSVKVSCKASGGTFSSYAISWVRQAPGQGLEWMGGIIPIFGTTNYAQKFQGRVTITTDESTSTAYMELSSLRSEDTAVYYCARVYSYDSSGYYLEYWGQGTRVTVSS
VL: B1 VL with D1E, Q3V, R97S, V98I, G102Q, K105R, V106L

target: full-length SARS-CoV S, cell surface-expressed (SARS-CoV, strain , UniProt P59594); assay: flow cytometry on cells

Row | Binder | binding result
1 | B1 | binds
2 | B2 | binds
3 | B3 | binds

target: full-length SARS-CoV-2 S (WT), cell surface-expressed (SARS-CoV-2, ancestral (Wuhan-Hu-1), UniProt P0DTC2); assay: flow cytometry on cells

Row | Binder | binding result
4 | B1 | binds
5 | B2 | binds
6 | B3 | binds

target: full-length MERS-CoV S, cell surface-expressed (MERS-CoV, strain , UniProt K9N5Q8); assay: flow cytometry on cells

Row | Binder | binding result
7 | B1 | no binding (tested: 50 μg/mL)
8 | B2 | no binding (tested: 50 μg/mL)
9 | B3 | no binding (tested: 50 μg/mL)

target: full-length S of endemic HCoV 229E, cell surface-expressed (Human coronavirus 229E, strain not …, UniProt P15423); assay: flow cytometry on cells

Row | Binder | binding result
10 | B1 | no binding (tested: 50 μg/mL)
11 | B2 | no binding (tested: 50 μg/mL)
12 | B3 | no binding (tested: 50 μg/mL)

target: full-length S of endemic HCoV NL63, cell surface-expressed (Human coronavirus NL63, strain not …, UniProt Q6Q1S2); assay: flow cytometry on cells

Row | Binder | binding result
13 | B1 | no binding (tested: 50 μg/mL)
14 | B2 | no binding (tested: 50 μg/mL)
15 | B3 | no binding (tested: 50 μg/mL)

target: full-length S of endemic HCoV OC43, cell surface-expressed (Human coronavirus OC43, strain not …, UniProt P36334); assay: flow cytometry on cells

Row | Binder | binding result
16 | B1 | no binding (tested: 50 μg/mL)
17 | B2 | no binding (tested: 50 μg/mL)
18 | B3 | no binding (tested: 50 μg/mL)

target: full-length S of bat CoV SHC014, cell surface-expressed (Bat SARS-like coronavirus RsSHC014, UniProt U5WLK5); assay: flow cytometry on cells

Row | Binder | binding result
19 | B1 | binds
20 | B2 | binds
21 | B3 | binds
